# Test results taken from US20160264649A1.
# Legend:
# Assay in all cases: cell-based or functional assay
# [1] = target: HIV-1 93MW959 Env on pseudovirus (HIV-1)
# [2] = target: HIV-1 MGRM-D-011 Env (HIV-1)
# aMLV envelope = target: aMLV envelope
# [3] = target: HIV-1 MGRM-C-020 Env on pseudovirus (HIV-1)
# [4] = target: HIV-1 MGRM-Chronic-B-004 Env on pseudovirus (HIV-1)
# [5] = target: HIV-1 CAAN.A2 (Acute) Env on pseudovirus (HIV-1)
# [6] = target: HIV-1 MGRM-AG-002 Env (HIV-1)
# [7] = target: HIV-1 93UG077 Env (HIV-1)
# [8] = target: HIV-1 92BR020 Env on pseudovirus (HIV-1)
# [9] = target: HIV-1 MGRM-C-024 Env on pseudovirus (HIV-1)
# [10] = target: HIV-1 MGRM-Chronic-B-018 Env on pseudovirus (HIV-1)
# [11] = target: HIV-1 92UG005 Env (HIV-1)
# [12] = target: HIV-1 MGRM-AG-009 Env (HIV-1)
# [13] = target: HIV-1 MGRM-F1-004 Env (HIV-1)
# HIV-1 CMU02 Env (HIV-1) = target: HIV-1 CMU02 Env (HIV-1)
# [14] = target: HIV-1 MGRM-C-005 Env on pseudovirus (HIV-1)
# [15] = target: HIV-1 98CN006 Env on pseudovirus (HIV-1)
# [16] = target: HIV-1 VLGCB3 Env on pseudovirus (HIV-1)
# [17] = target: HIV-1 MGRM-C-017 Env on pseudovirus (HIV-1)
# [18] = target: HIV-1 MGRM-G-019 Env (HIV-1)
# [19] = target: HIV-1 MGRM-F1-015 Env (HIV-1)
# [20] = target: HIV-1 MGRM-D-005 Env (HIV-1)
# [21] = target: HIV-1 92RW020 Env (HIV-1)
# [22] = target: HIV-1 MGRM-AE-001 Env (HIV-1)
# [23] = target: HIV-1 MGRM-Chronic-B-011 Env on pseudovirus (HIV-1)
# [24] = target: HIV-1 MGRM-C-012 Env on pseudovirus (HIV-1)
# [25] = target: aMLV envelope (negative control pseudovirus)
# [26] = target: HIV-1 MGRM-D-028 Env (HIV-1)
# [27] = target: HIV-1 MGRM-F1-010 Env (HIV-1)
# [28] = target: HIV-1 MGRM-AE-002 Env (HIV-1)
# [29] = target: HIV-1 MGRM-AG-008 Env (HIV-1)
# [30] = target: HIV-1 97ZA012 Env on pseudovirus (HIV-1)
# [31] = target: HIV-1 MGRM-F1-014 Env (HIV-1)
# [32] = target: HIV-1 MGRM-G-014 Env (HIV-1)
# [33] = target: HIV-1 PVO.4 (Acute) Env on pseudovirus (HIV-1)
# [34] = target: HIV-1 IAVI-C3 Env (HIV-1)
# [35] = target: HIV-1 MGRM-AG-011 Env (HIV-1)
# [36] = target: HIV-1 APV_17 Env on pseudovirus (HIV-1)
# [37] = target: HIV-1 93IN905 Env (HIV-1)
# [38] = target: HIV-1 MGRM-G-027 Env (HIV-1)
# [39] = target: HIV-1 94UG103 Env (HIV-1)
# [40] = target: HIV-1 MGRM-Chronic-B-001 Env on pseudovirus (HIV-1)
# [41] = target: HIV-1 MGRM-F1-016 Env (HIV-1)
# [42] = target: HIV-1 MGRM-F1-008 Env (HIV-1)
# [43] = target: HIV-1 92UG001 Env (HIV-1)
# [44] = target: HIV-1 APV_6 Env on pseudovirus (HIV-1)
# [45] = target: HIV-1 MGRM-C-010 Env on pseudovirus (HIV-1)
# HIV-1 APV-6 Env (HIV-1) = target: HIV-1 APV-6 Env (HIV-1)
# [46] = target: HIV-1 JRFL Env on pseudovirus (HIV-1)
# [47] = target: HIV-1 92BR020 Env (HIV-1)
# [48] = target: HIV-1 MGRM-Chronic-B-002 Env on pseudovirus (HIV-1)
# Chain of 1443_C16 (PG16) (TCN-116) (antibody) (VH): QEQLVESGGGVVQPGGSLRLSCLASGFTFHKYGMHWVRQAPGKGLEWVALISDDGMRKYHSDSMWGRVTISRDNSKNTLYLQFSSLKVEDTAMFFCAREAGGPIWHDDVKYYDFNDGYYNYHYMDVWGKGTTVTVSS
# Chain of 1443_C16 (PG16) (TCN-116) (antibody) (VL): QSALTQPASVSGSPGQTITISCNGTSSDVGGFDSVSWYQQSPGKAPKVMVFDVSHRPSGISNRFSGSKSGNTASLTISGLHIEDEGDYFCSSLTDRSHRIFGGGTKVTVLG
substance,measurement,setting,value
1443_C16 (PG16) (TCN-116) (antibody),IC50,[1],0.007 µg/mL
same,"IC50 (µg/ml), pseudovirus neutralization",[2],0.01 µg/mL
same,neutralization IC50,aMLV envelope,> 50 µg/mL
same,neutralization IC90,aMLV envelope,> 50 µg/mL
same,IC50,[3],> 50 µg/mL
same,IC50,[4],0.01 µg/mL
same,IC50,[5],8.83 µg/mL
same,"IC50 (µg/ml), pseudovirus neutralization",[6],0.03 µg/mL
same,neutralization IC50,[7],> 50 µg/mL
same,neutralization IC90,[7],> 50 µg/mL
same,IC50,[8],> 50 µg/mL
same,IC50,[9],0.04 µg/mL
same,IC50,[10],0.7 µg/mL
same,"IC50 (µg/ml), pseudovirus neutralization",[11],> 50 µg/mL
same,neutralization IC50,[11],> 50 µg/mL
same,neutralization IC90,[11],> 50 µg/mL
same,"IC50 (µg/ml), pseudovirus neutralization",[12],> 50 µg/mL
same,IC50 (pseudovirus neutralization),[13],0.43 µg/mL
same,"IC50 (µg/ml), pseudovirus neutralization",HIV-1 CMU02 Env (HIV-1),43.6 µg/mL
same,neutralization IC50,HIV-1 CMU02 Env (HIV-1),> 50 µg/mL
same,neutralization IC90,HIV-1 CMU02 Env (HIV-1),> 50 µg/mL
same,IC50,[14],2.55 µg/mL
same,IC50,[15],> 50 µg/mL
same,IC50,[16],0.4 µg/mL
same,IC50,[17],1.8 µg/mL
same,"IC50 (µg/ml), pseudovirus neutralization",[18],1.21 µg/mL
same,IC50 (pseudovirus neutralization),[19],> 50 µg/mL
same,"IC50 (µg/ml), pseudovirus neutralization",[20],19.7 µg/mL
same,"IC50, TZM-bl pseudovirus neutralization",[21],0.09 µg/mL
same,neutralization IC50,[21],0.004 µg/mL
same,neutralization IC90,[21],> 50 µg/mL
same,"IC50 (µg/ml), pseudovirus neutralization",[22],4.33 µg/mL
same,IC50,[23],> 50 µg/mL
same,IC50,[24],0.48 µg/mL
same,IC50 (pseudovirus neutralization),[25],> 50 µg/mL
same,"IC50 (µg/ml), pseudovirus neutralization",[26],> 50 µg/mL
same,IC50 (pseudovirus neutralization),[27],0.01 µg/mL
same,"IC50 (µg/ml), pseudovirus neutralization",[28],0.01 µg/mL
same,"IC50 (µg/ml), pseudovirus neutralization",[29],0.002 µg/mL
same,IC50,[30],2.55 µg/mL
same,IC50 (pseudovirus neutralization),[31],0.01 µg/mL
same,"IC50 (µg/ml), pseudovirus neutralization",[32],6.98 µg/mL
same,IC50,[33],5.43 µg/mL
same,neutralization IC50,[34],14.8 µg/mL
same,neutralization IC90,[34],> 50 µg/mL
same,"IC50 (µg/ml), pseudovirus neutralization",[35],0.002 µg/mL
same,IC50,[36],24.8 µg/mL
same,neutralization IC50,[37],0.102 µg/mL
same,neutralization IC90,[37],> 50 µg/mL
same,"IC50 (µg/ml), pseudovirus neutralization",[38],0.01 µg/mL
same,neutralization IC50,[39],0.008 µg/mL
same,neutralization IC90,[39],1.59 µg/mL
same,IC50,[40],> 50 µg/mL
same,IC50 (pseudovirus neutralization),[41],1.12 µg/mL
same,IC50 (pseudovirus neutralization),[42],> 50 µg/mL
same,"IC50 (µg/ml), pseudovirus neutralization",[43],> 50 µg/mL
same,IC50,[44],0.29 µg/mL
same,IC50,[45],> 50 µg/mL
same,neutralization IC50,HIV-1 APV-6 Env (HIV-1),0.08 µg/mL
same,neutralization IC90,HIV-1 APV-6 Env (HIV-1),44.3 µg/mL
same,IC50,[46],> 50 µg/mL
same,neutralization IC50,[47],> 50 µg/mL
same,neutralization IC90,[47],> 50 µg/mL
same,IC50,[48],3.06 µg/mL
4E10 (antibody),IC50,[1],4.55 µg/mL
same,"IC50 (µg/ml), pseudovirus neutralization",[2],0.91 µg/mL
same,neutralization IC50,aMLV envelope,> 50 µg/mL
same,neutralization IC90,aMLV envelope,> 50 µg/mL
same,IC50,[3],2.8 µg/mL
same,IC50,[4],3.7 µg/mL
same,IC50,[5],17.9 µg/mL
same,"IC50 (µg/ml), pseudovirus neutralization",[6],0.8 µg/mL
same,neutralization IC50,[7],11.2 µg/mL
same,neutralization IC90,[7],> 50 µg/mL
same,IC50,[8],> 50 µg/mL
same,IC50,[9],22.6 µg/mL
same,IC50,[10],23.2 µg/mL
same,"IC50 (µg/ml), pseudovirus neutralization",[11],7.46 µg/mL
same,neutralization IC50,[11],8.86 µg/mL
same,neutralization IC90,[11],> 50 µg/mL
same,"IC50 (µg/ml), pseudovirus neutralization",[12],31.4 µg/mL
same,IC50 (pseudovirus neutralization),[13],2.74 µg/mL
same,"IC50 (µg/ml), pseudovirus neutralization",HIV-1 CMU02 Env (HIV-1),0.72 µg/mL
same,neutralization IC50,HIV-1 CMU02 Env (HIV-1),0.59 µg/mL
same,neutralization IC90,HIV-1 CMU02 Env (HIV-1),13.4 µg/mL
same,IC50,[14],16.4 µg/mL
same,IC50,[15],1.91 µg/mL
same,IC50,[16],5.76 µg/mL
same,IC50,[17],1.47 µg/mL
same,"IC50 (µg/ml), pseudovirus neutralization",[18],6.53 µg/mL
same,IC50 (pseudovirus neutralization),[19],0.53 µg/mL
same,"IC50 (µg/ml), pseudovirus neutralization",[20],35.2 µg/mL
same,neutralization IC50,[21],3.38 µg/mL
same,neutralization IC90,[21],36.1 µg/mL
same,"IC50 (µg/ml), pseudovirus neutralization",[22],0.85 µg/mL
same,IC50,[23],1.07 µg/mL
same,IC50,[24],0.44 µg/mL
same,IC50 (pseudovirus neutralization),[25],> 50 µg/mL
same,"IC50 (µg/ml), pseudovirus neutralization",[26],1.28 µg/mL
same,IC50 (pseudovirus neutralization),[27],3.69 µg/mL
same,"IC50 (µg/ml), pseudovirus neutralization",[28],0.55 µg/mL
same,"IC50 (µg/ml), pseudovirus neutralization",[29],1.48 µg/mL
same,IC50,[30],4.7 µg/mL
same,IC50 (pseudovirus neutralization),[31],7.36 µg/mL
same,"IC50 (µg/ml), pseudovirus neutralization",[32],13.7 µg/mL
same,IC50,[33],18.3 µg/mL
same,neutralization IC50,[34],5 µg/mL
same,"IC50 (µg/ml), pseudovirus neutralization",[35],1.36 µg/mL
same,IC50,[36],10.5 µg/mL
same,neutralization IC50,[37],1.55 µg/mL
same,neutralization IC90,[37],12.8 µg/mL
same,"IC50 (µg/ml), pseudovirus neutralization",[38],1.19 µg/mL
same,neutralization IC50,[39],9.7 µg/mL
same,neutralization IC90,[39],> 50 µg/mL
same,IC50,[40],1.46 µg/mL
same,IC50 (pseudovirus neutralization),[41],7.61 µg/mL
same,IC50 (pseudovirus neutralization),[42],2.75 µg/mL
same,"IC50 (µg/ml), pseudovirus neutralization",[43],13.6 µg/mL
same,IC50,[44],1.1 µg/mL
same,IC50,[45],11 µg/mL
same,neutralization IC50,HIV-1 APV-6 Env (HIV-1),0.4 µg/mL
same,IC50,[46],18.9 µg/mL
same,neutralization IC50,[47],41.4 µg/mL
same,neutralization IC90,[47],> 50 µg/mL
same,IC50,[48],2.19 µg/mL
